Tested on: K4 kissing-loop RNA reporter
Test: apparent KD of K4 kissing-loop reporter; higher = weaker reporter binding
Conditions: Eterna round: R107
Protocol: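 RNA-MaP round R107: designed RNA switches with theophylline, tryptophan, arginine or FMN aptamers are transcribed on-chip within common flanks. They are titrated with a labelled K4 kissing-loop RNA reporter in RNA-MaP buffer (100 mM Tris pH 7.5, 80 mM KCl, 4 mM MgCl2), without ligand or with the indicated ligand. Median apparent KD per design.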

[1] = input ligand: theophylline 20 uM
[2] = input ligand: tryptophan 2.4 mM
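Note: bound reporter read as fluorescence of individual clusters on recovered sequencing chips by microscopy, with normalized cluster intensities fitted with a binding model.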

Sequence | apparent KD of K4 kissing-loop reporter (input ligand: FMN 200 uM) | apparent KD of K4 kissing-loop reporter (input ligand: arginine 13.2 mM) | apparent KD of K4 kissing-loop reporter (input ligand: none) | apparent KD of K4 kissing-loop reporter [1] | apparent KD of K4 kissing-loop reporter [2]
CGCGCGGGUUUGAGAGGGUUUGCGCGAAGUGAGGAUAUUUAGGGAGAAAGAAGGCACUAUAAAAUAUAGUGAUGUUAUAUAAGGG [SSFMNA.I] | 627 nM | 117 nM | 251 nM | 139 nM | 269 nM
UAUGUACACGGGUAGUUGUACAUCGAGGAAGGAGCGUGCGCAGGCACAGGUAGGUCGCCUCAGCGCACGAGUGAUGUUCGUGGGC [Xexegeus] | 276 nM | 170 nM | 257 nM | 216 nM | 247 nM
AAGUGAUGUUGUAGUGAUGUUGUGAUGUUGCAGGAUAUAUAGUGAUGUAGAAGGGUAUGUACUUAUUUUUUAUUUGAGUUAUGUU [mmvmmullin] | 72.1 nM | 29.8 nM | 56.1 nM | 43.9 nM | 57.2 nM
GCAGUGAUGUUGCGCGGGUACGGUAGAGUACGAGGACCGGUACGGCCGCCACUCGUACGGAACUGGCUAAUUUAUGGAAUGGUGA [IV] | 377 nM | 198 nM | 313 nM | 350 nM | 213 nM
GAUCUGAACGAAAGUUCGGAUCAGUCCGAUACCAGUAUGGAUUCAUACCCUUGGCAGCGGAAAUCUGCUAUGGAGUGAUGUUCCA [Theophylline A K4 14] | 532 nM | 328 nM | 379 nM | 418 nM | 391 nM
CCCUCACGAGUGAUGUUCGUAGGGUACAGUCAGGAUAUCAUGCGGUUGAGAAGGGACAGAGAAGGCGGCGACGGGUUGCUUAUCU [Atenus] | 206 nM | 243 nM | 277 nM | 200 nM | 218 nM
GGACCACCAGUGAUGUUGGAGAUAAACUCCAAGGAUAUGACGAAAGUCAGAAGGUGGUAAUAAGACGUCAAAGACGUCAGGUCCA [FmnA 20 #SwitchBubble #K4Early] | 372 nM | 116 nM | 187 nM | 209 nM | 178 nM
GGUAGCAUGGCGGCCGCCACUCUUCAUUAGUGAUGUUAAUGCCGAGUGCGCUAACUCCAACUGGAGAGGACCGGGCCAUGCUACC | 182 nM | 122 nM | 288 nM | 440 nM | 76 nM
UGUGUACCGGGAAGGAGCGUGAAUGAGAAUGGAUAUAGUGAUGUUAUAUAUACGAACGAAUCGCAGGUAGGUCGCCCGGAUCCCU [SSArgB.Y] | 418 nM | 408 nM | 432 nM | 444 nM | 345 nM
AUUAAGAUAUGAGUGAUGUUUAUGUCCGAAGGAGCGUGCGAAAGUACAGGUAGGUCGCGGAUGUGAGUGAUGUUUAUGUAAGCGU [KL-XArg-A15 #analogue] | 109 nM | 33.8 nM | 97.1 nM | 65 nM | 83.4 nM
AACUUAAUUUAUAAGCAGUGAUGUUGCUCACGAGGACCGGUACGGCCGCCACUCGAUCGGACUUAGGUCUUCAAUUAUUUCUUAA [JR_ExcTryptoA_Sub018] | 114 nM | 157 nM | 137 nM | 140 nM | 121 nM
GGUAGCAUGGCGGCCGCCACUUCAUAUGGAGUGAUGUUCCAGCAUCUUAUAAGACUGAGGUGAGGAAGGACCGGGCCAUGCUACC | 635 nM | 561 nM | 577 nM | 615 nM | 189 nM
UAAGAAUAAGUAGCAGUGAUGUUGCUACUACGAGGACCGGUACGGCCGCCACUCGAAUACGAGUGGAAGUAGCAACUACCACUCA [(H1)-(H2)-(Trp1)-(Trp2)-(T)'-(H)'-(T)''_Design7] | 114 nM | 96.2 nM | 125 nM | 88 nM | 135 nM
CAGCAUCUGAGUGGUAGCCAUUGAGAGAUGCAGGAUAUCUGGAAACAGAGAAGGGCAGUGAGUGAUGUUCACGGCUGGCUUGGUU | 154 nM | 132 nM | 179 nM | 133 nM | 110 nM
GCCGUACGCAUGGAUACCAGUCAAGAUCAGUGAUGUUGAUCUUUUAUAGAGCCUACAUUUGACCCUUGGCAGCCAUGCGUACGGC | 378 nM | 320 nM | 330 nM | 465 nM | 247 nM
GUGCGGUGGAGGUUACCGCUAUUCUGAGAAGGAGCGCAGAUGACUGCAGGUAGGUCGCUUAGAGCUUGCAGUGAUGUUGCAAGUU [Berienza] | 220 nM | 174 nM | 199 nM | 166 nM | 200 nM
UGUCAUUGGUCUGAUACCAGUUGGGACGAAUACGUCCAACUGGAGUGAUGUUCCUAAAACAACCCUUGGCAGCAGACCGAUGACU [TheoBS 13 #SwitchBubble 13 #StaticStem] | 870 nM | 782 nM | 1040 nM | 638 nM | 750 nM
AGUGGACGUGUCUAGAGUGAUGUUCCGGAUACCAGACACGAAAGUGUCCCUUGGCAGCCGGAGUGAUGUUCUGGCGUUCACUAAA [Omei KL Theo A Exc B v6] | 647 nM | 296 nM | 549 nM | 459 nM | 440 nM
AAGUGUUCUAGUGAUACCAGACAUUUCUAUUUUAUCUUUAUAGCUAAGUGAUGUUUAGCAGUCCCUUGGCAGCACUAUUUCACUA [JR_SSTheophyB_Sub017] | 123 nM | 155 nM | 137 nM | 160 nM | 147 nM
GAAUAAUAACAUGAGUGAUGUUCAUGUAAACGAGGACCGGUACGGCCGCCACUCGUUUCUCAUGUAAGCCGUACCAAUAACAAUA [KL-XTryp-A5 #analogue] | 146 nM | 142 nM | 151 nM | 147 nM | 237 nM
GUACGCUCCCGAGUGAUGUUCGGUAAUCGCUAGGAUAUCGCUUUUGCGAGAAGGAGCGGAAUGAGGAAACUCGUUCUGAGUGUAC [FMN A 26] | 300 nM | 254 nM | 350 nM | 386 nM | 338 nM
AGUGGACGUGUCUGGAGUGAUGUUCUGGAUACCAGACACGAAAGUGUCCCUUGGCAGCCGGAGUGAUGUUCCGGCGUUCACUAAA [Omei KL Theo A Exc B v5] | 462 nM | 239 nM | 402 nM | 396 nM | 307 nM

Sequence | apparent KD of K4 kissing-loop reporter (input ligand: FMN 200 uM) | apparent KD of K4 kissing-loop reporter (input ligand: arginine 13.2 mM) | apparent KD of K4 kissing-loop reporter (input ligand: none) | apparent KD of K4 kissing-loop reporter [1] | apparent KD of K4 kissing-loop reporter [2]
CGUUCUUCUGUCGAUACCAGCUUCAGUUGGCGGCCAGUGAUGUUGGUAUCGCCGAUGCCAAGCCCUUGGCAGCGACAUGAGACCC [Onrire] | 171 nM | 180 nM | 182 nM | 130 nM | 168 nM
AAUAAAAUCACGGCCGCCACUGAUGCUAAUAUUAGCAGUGAUGUUGCUAUGUAGAUUUUAUUUAACAGGACCGGGUGAAUAUUUA [JR_SSTryptoB_Sub025] | 198 nM | 124 nM | 162 nM | 170 nM | 269 nM
GCCGUACGCAUGGAUACCAGACUACCAUUGGAAACAAUGUGUCCGGUAGUGAUGUUACCUGUCCCUUGGCAGCCAUGCGUACGGC | 649 nM | 549 nM | 702 nM | 396 nM | 655 nM
UGGAUAUAGUGAUGUUAUAUAGAGAUGGAUACCAGCAAAGAGAAUUGCCCUUGGCAGCCGAAAGAAGUAUCAUUAGAGAAGAAUG [ExTheophyl.Af] | 285 nM | 221 nM | 278 nM | 277 nM | 206 nM
GCCGUAGUUGGAAGGAGCGUGAAUGGCCUCUAUCCAAAGUGAUGUUUUGUUGAAGACUGUUCACAGGUAGGUCGCCAACUACGGC [#09 K4 Arginine B Same State] | 145 nM | 130 nM | 133 nM | 134 nM | 132 nM
AGUGUUGUAUGACGGUUUGUCACUUAGGAUCAGGAUAUAUAAACAAAUAGAAGGGAUGGCGGAGUGAUGUUCCGCCGGCCGCCAU [FMN A Exl V9] | 110 nM | 101 nM | 104 nM | 106 nM | 94.3 nM
CAUAGGAAACUAUGUUCCUCUCUUACUGAAGGAGCGCGUGAAAACGCAGGUAGGUCGCAGGAUUUGAGAGUGAUGUUCUCAUUAA [Ex Arginine A K4 15] | 160 nM | 260 nM | 254 nM | 278 nM | 171 nM
GCAGGACGAGGAGGAGGAUGAAUUACUGAAGGAGCGCAUAUUGUUGCAGGUAGGUCGCGGUAAACAAGUAUAGUGAUGUUAUAUC [SSArgA.O] | 770 nM | 270 nM | 877 nM | 695 nM | 416 nM
AAGUGUGUGGCGGCCGCCACUAGAAUCCAGUGAUGUUGGAGAUAUCAUGUAAAUGAUAUCCAACAUAGGACCGGGCCAUAUAGAA [Same State - Tryptophan B (Freestyle 10)] | 126 nM | 98 nM | 92.4 nM | 131 nM | 120 nM
AAGUCAUAGGCAGGAUAUGCAUAGUAAUAAGGCAAUAUCUACGUAUAGAGUGAUGUUUUGUACCAGGCAGAAGGGCUACAUCAGU [FMN B Excl V9 (+4A/C)] | 635 nM | 407 nM | 514 nM | 554 nM | 424 nM
GGAGUUACCUGGGAUACCAGUCGGAGUCUCAGAGCUCGGAGUGAUGUUCUGGGAUGUUUCGGCCCUUGGCAGCUCUGGGACUCCA [#2 Exclusion - Theophylline B Attempt #16 (HarryS)] | 924 nM | 627 nM | 863 nM | 843 nM | 707 nM
UUGGAGUGAUGUUCCAUGUCUUGAGCCGAAGGAGCGCCUUUCUAGGCAGGUAGGUCGCGGCAGAAGGUACCAGUGAUGUUGGAAA [Same State Arginine A GF9] | 161 nM | 225 nM | 283 nM | 222 nM | 164 nM
GAAAUCACGGAUGAUACCAGCCAGAACUCUCACAGUGAUGUUGUGCUUAAAUGAUUAGGAGGCCCUUGGCAGCAUACGCUAAUUU [theeternabot_sameState_KL_Theo_B_36] | 324 nM | 267 nM | 313 nM | 305 nM | 226 nM
AAAACUAUCAGAAGGAGCGUGGAAUAUUCAUCUAUAUUUAAUACGAGUGAUGUUCGUAAUUCACAGGUAGGUCGCUGAUCAAUAA [JR_ExcArginiB_Sub007] | 214 nM | 251 nM | 233 nM | 273 nM | 171 nM
GCCGUACGCAUGGAUACCAGUCUUUCGCGACUGGACAUGGAGUGAUGUUUCGUGAUGCUAGACCCUUGGCAGCCAUGCGUACGGC | 233 nM | 163 nM | 206 nM | 234 nM | 201 nM
CAAAUAUGCGGUAGGUUCAAGCGCUGGGAAGGAGCGCAGAUGACUGCAGGUAGGUCGCCCAGUGAUGUUGGGCUUUCCACCUAUG [Esisusa] | 132 nM | 109 nM | 107 nM | 136 nM | 100 nM
GGUAGCAUGGCGGCCGCCACUCUUCAUUAGUGAUGUUAAUGCCGAGUGCGCUAACUCCUACGGGAGAGGACCGGGCCAUGCUACC | 1220 nM | 4.43 nM | 25.8 nM | 919 nM | 14.6 nM
AGGGUUAAUUAGUCUUUUUUCACAUUAAGUCAGGAUAUCGUAUUUUCGAGAAGGGACACAUGCUAGUGAUGUUAGCUAUUUCCCA [#02 K4 FMN A Exclusion] | 77.3 nM | 115 nM | 90.6 nM | 122 nM | 86.2 nM
AUAUAAGUCGGAGGAUAUCCAGUGAUGUUAUGUUGUGAUGUUUAGUGAUGUUAGGCAUCAGUGAAGGGAGAAGGCCGUAAGUGAU [APPLE] | 68.6 nM | 53.3 nM | 91.1 nM | 89.2 nM | 78.9 nM
AGGCACGAGCAAGGAUAUUGAGUAGAGUGAUGUUCUGCCUAAGUUGGCUCGAAAGAGCCUUCUUAGCGAGAAGGUGCUCGUGCCU [#2 Same State - FMN A Attempt #26 (HarryS)] | 297 nM | 534 nM | 666 nM | 812 nM | 763 nM
UGACUGGACUGAAGGAGCGCUUAACUCCUAGUGAUGUUAGGAUAACGAGACAAAGUCUCGAAGCAGGUAGGUCGCAGUCUAGUCU | 157 nM | 104 nM | 118 nM | 126 nM | 128 nM
AUGUAUGAAUUAGGAUAUCGUGAGCUUUGCAUAUAUAUGAUAAAUGGAUAUGUCGUAGUGAUGUUACGAGAAGGAGUGUGGAGUA [KL-XFMN-B3] | 52.4 nM | 55.7 nM | 43.9 nM | 65.8 nM | 37.4 nM
